Laboratory results as given in the nanobody polyreactivity screen of Harvey et al. (2022).

Experiment: yeast display, Sf9 membrane polyspecificity reagent, FACS + sequencing; frameworks hold sequencing errors
Summary of the method: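 Sorting gates, low and high (top ~1%), were placed on anti-HA fluorescence to track expression and on streptavidin fluorescence to track reagent binding. A clone's polyreactivity label is taken from the gate it came out of. The reagent was 10% biotinylated, detergent-solubilized Sf9 membrane, applied for 1 hour at 4 °C to galactose-induced yeast display cells.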

Sequence | polyreactivity (PSR sort gate)
QVQLVESGGGLVQAGGSLRLSCAASGITFYLYTMGWYRQAPGKERELVAAISWRGGGTYYADSVKGRFTISRDNAKNTVYLQMNSLKPEDTAVYYCATVRTYARNDYWGQGTQVTVSS | high polyreactivity
QVQLVESGGGLVQAGRSLRLSCAASGSTFYYYTMGWYRQEPGKERELVAAISFIGGSTYYADSVKGRFTISRDNAKNTVYLQMNSLKPEDTAVYYCAAESYPLSYSSATLSPSYEYWGQGTQVTVSS | low polyreactivity
QFQLVESGGGLVQAGGSLRLSCAASGSSFTVYAMGWYRQAPGKETELVAAISYVGGSTYYAASVKGRFTISRDNAKNTVYLQMNSLKPEDTAVYYCAADPYYSYGYYHAHGRDVGYWGQGTQVTVSS | low polyreactivity
QVQLVESGGGLVQAGGSLRLSCAASGRIFGGNAMGWYRQAPGKERELVAAITSGGGSTSYADSVKGRFTISRDNAKNTVYLQMNSLKPEDTAVYYCAAPATYGPFVIDTVYPRDGYWGQGTQVTVSS | low polyreactivity
QVQLVESGGGLVQAGGSLRLSCAASGSTFSTYAMGWYRQAPGKERELVAAISRTGGSTYYADSVKGRFTISRDNAKNTVYLQMNSLKPEDTAVYYCAADEDWEYWAPWYDYWGQGTQVTVSS | low polyreactivity
QVQLVESAGGLVQAGGSLRLSCAASGRIFPYYAMGWYRQAPGKERELVAAITTDGGGTYYADSVKGRFTISRDNSKNTVYLQMNSMKPEDTAVYYCAVPSYQWYDPENYWGQGTQVTVSS | low polyreactivity
QVQLVESGGGLVQAGGSLRLSCAASGFIFQPYAMGWYRQAPGKERELVAAITSRGGRTYYADSVKGRFTISRDNAMNTVYLLMNSLKPEDTAVYYCAKRYAVYVTHFSRIRWYNYWGQGTQVTVSS | low polyreactivity
QVQLVESVGGLVQAGGILRLSCAPSGSTFDVYAMGWYRQAPAKERELVAAISWTGGSTYYADSVKGRFTISRDNAKNTVYLQMNRLKPEDTAVYYCAAYEIQTPRIAHYVGCGRDYLGQGTQVTVSS | high polyreactivity
QVQLVESGGGLVQAGGSLRLSCAASGSIYGYNAMGWYRQAPGKEREFVAAISWSGGRTYYADSVKGRFTISRDTAKNTVYLQMNSLNPEDTAVYYCAAPSRPAPRFDYWGQGTQVTVSS | low polyreactivity
QVQLVESGGGLVQAGGSLRLSCADSGRTQWSYAIGWYRQAPGKERELVATISYSGGSTYYADSVKGRFTISRDNAKNTVYLQMNSLKPEATAVYYCNAVARWYVLQVYEYDYWGEGTQVTVSS | low polyreactivity
QVQLVESGGGLVQEGGSLRLSCAASGRILSPNAMGWYRQAPGKERELVATITRSGGSTYYADSVKGRFTISRDNAKNTVYLQMNSLKPEDTAVYYCAKLHTYPWIHDYWGQGTQVTVSS | low polyreactivity
QVQLVESGGGLVQAGGSLRLSCAASGYILGVYAMGWYRQAPGKERELVASISRSGGSTYYADSVKGRFTISRDNAKNTVYLQMNSLKPEDTAVYYCATRSRTAHFRLRYDYWGQGTQVTVSS | low polyreactivity
QVQLVESGGGLVQAGGSLRLSCAASGGTFYINTMGWNRQAPGKERELVATITIVVSTKYADSVKGRFTISRDNAKNTVYLQMNSLNPEDTAVYYCAKDDVYRDSFLVFDGEMVYWGQGTQVTVSS | low polyreactivity
QVQLVESGGGLVQAGGSLRLSCAASGRIFSVNAMGWYRQAPGKERELVAAITPGASTNYADSVKGRFTISRDNAKNTVYLQMNSLKPEDTAVYYCAAGWVSFEDWVLGSYYEFDYWGQGTQVTVSS | low polyreactivity
QVQLVESGGGLVQAGGSLRLSCAATGSIFNVNAMGWYRQAPGKERELVAAISSGGDTYYADSVKGRFTISRDNAKNTVYIQMNSLQPEDTAVYYCAKQSYTLYTLLYDYWGQGTQVTVSS | low polyreactivity
QVQLVESGGGLVQAGGSLRLSCAASGSISDWNAMGWYRQAPGKERELVAAINWSGDTTYYADSVKGRFTISRDTAKNTVYLQMNSLKPEDTAVYYCAADLVVDYEWYDYWGQGTQVTVSS | high polyreactivity
QVQLVESGGGLVQAGGSLRLSCAASGRIFTTYAMGWYRQAPGKERELVATITTTDTRTYADSVKGRFTISRDNAKNTVYLQMNSLKPEDTAVYYCAKDRLNKGRYYRAASDYWGQGTQVTVSS | low polyreactivity
QVQLVESGGGLVQAGGSLRLSCAASGSTFVKNSMGLYRQAPGKERELVAVISWPGSSTYYADSVKGRFTISRDNAKNTDYLQMISLKPEDTAVYYCNAPKIRPGSHTRHYYWGQGTQVTVSS | low polyreactivity
QVQLVESGGGLVQAGGSLRLSCAASGFIFKSNAMGWYRQAPGKERELVAAITRSGGRTYYADSVKGRFTISRDNAKNTVYLQMNSLKPEDTAVYYCNAKLYTGSFDYWGQGTQVTVSS | high polyreactivity
QVQLVESGGGLVQAGGSLRLSCAASGYTFSRYAMGLYRQAPGKERELVAAISHSAGRTYYADSVKGRFTISRDNAKNTVYLKMNSLKPEDTAVYYCATVLYSVPRYNYWGQGSQVTVSS | high polyreactivity
QVQLVESGGGLVQAGGSLRLSCAASGYILWNAMGWYRPAPGKERELVAAIRFRGGSTSYADSVKGRFTISRDNAKNTVYLQMNSLKPEDTAVYYCNARWWVIRPYQRHDYWGQGTQVTVSS | low polyreactivity
QVQLVESGGGLVQAGGSLRLSCAASGRTFIVYAMGWYRQAPGKERELVAGITRGSTNYADSVKGRFTISRDNAKNTVYLQMNSLKPEDTAVYYCAARSSRRGPISEGDYWGQGTQVTVSS | high polyreactivity

Sequence | polyreactivity (PSR sort gate)
QVQLVESGAGLVQAGGSLRLSCAASGLIFQSNAMVWYRQAPGKERELVAAISTAGSTNYGDSETGRFTISRDNAKKTVFLQMNSLKREDTAVYSCAAQVSTPYRYPRQILYDYWGQGTQVTVSS | low polyreactivity
QVQLVESGGGLVQAGGSLRLSCAASGRIFWWYTMGWSRQAPGKERELVAAISGSGGSTYYADSVKGRFTISRDNAKNTVYLQMNSLKPEDTAVYYCAAYHRRRATPIHSGEYGYWGQGTQVTVSS | high polyreactivity
QVQLVESGGGLVQAGGSLRLSCAAYGGIFPSYAMGWYRQAPGKERELVAAISRTGGSTYYADSVKGRFTISRDNAKNTVYLQMNSLKPEDTAVYYCAAEWAWYLGVYRRDRMYWGQGTQVTVSS | high polyreactivity
QVHLVESGGGLVQAGGSLRLSCAASGFIFSFYGMGWSRHAPAKESELVAAISSGGTTYYADSVKGRFTISRDNAKNSVYLQMNSLKPEDTAVYYCAGRVARRTTSVFSYFSRYNYWGQGTQVSVSS | high polyreactivity
QVQLVESGGGLVQAGGSLRLSCAASGSIFRRYAMGWYGQAPGKERELVAAISWSGGSTYYADSVKGRFTISRDNAKNTVYLQMNSLKPEDTAVYYCAARHRQQKLDYWGQGTQVTVSS | high polyreactivity
QFQLVESGGGLVQARGSLRLSCAASGITFKEYAMGWYRQAPGTERELVAAISKSGGSTYYADSVKGRFTISRDNAKNTVYLQMTSLKPEDTAVYYCAADYAEYEYGDYYWGQGTQVTVSS | low polyreactivity
QVQLVESGGGLVQAGGSLRLSCAASGSTFASNAMGWYRQAPGKERELVAAISRSGGTTYYADSVKGRFTISRDNAKNTVYLQMNSLKPEDTAVYYCAVYGYRFYKAVKYYYWGQGTQVTVSS | high polyreactivity
QVQLVESGGGLVQAGGSLRLSCAASGRTFKYYAMGWYRQAPGKERELVATINYSGGGTNYADSVKGRYTISRDNATNTVSLQMNSLKPDDTAVYYCAARWLWRIPYDYWGEGTQVTVSS | high polyreactivity
QVQLVESGGGLVQAGGSLRLSCAASGSIFVPYAMGWYRQAPGKERELVAAINHGGGRTYADSVKGRFTISRDNAKNTVYLQMNSLKPEDTAVYYCAADGAHKIGYYRYYYWGQGTQVTVSS | low polyreactivity
QVQLVESGGGLVQAGGSLRLSCAASGGTFGRNAMGWYRQAPGKERELVATITRRGGSTYYADSVKGRFTISRDNAKNTVYLQMNSLKPEDTAVYYCAAAGRYSNGTGYGYWGQGTQVTVSS | high polyreactivity
QVQLVESGGGLVQAGGSLRLSCAASGRTFGRYAMGWYRQAPGKERELVAAITRGGSTNYADSVKGRFTISRDNAKNTVYLQMNSLKPEDTAVYYCAKSVRYRYDYWGQGTQVTVSS | high polyreactivity
QVQLVESGGGLVQAGGSLRLSCAASGRIFSKYAMGWYRQAPGKERELVAAIRSGGRTYYADSVKGRFTISRDNAKNTVYLQMNSLKPEDTAVYYCAKGTFRYPFSFTFLGYDYWGQGTQVTVSS | high polyreactivity
QVQLGESGGGLVQAGGSLRLSCAASGRIFAYYTMGWYRQAPGKERELVAAITSGGSTYYADSVKGRFTISRDYAKNTVYLQMNSLKPEATAVYYCAAGWYTPVYLYYYWGQGTQVTVSS | high polyreactivity
QVQLVESGGGLVQAGGSLRLSCAASGSTFPRNAMGWYRLAPGKERELVAAITSGDSTYYADSVNGRFTISRDNAKNTVYLQKNSQKPEDTAVYYCGQGTQVTVSS | low polyreactivity
QVQLVESGGGLVQAGGSLRLSCAVSGRIFRRNVMGWSRPAPGKERALVAGSSYSGDSTYYADSVKGRFTISRDNAKNTVYLQMNSLKPEDTAVYYCAAALAHYRGMYYWGQGTQVTVSS | low polyreactivity
QVQLVESGGGLVQAGGSLRLSCAASGSIFAAYAMGWYRQAPGKERELVAAIDRGGSTDYADSVKGRFTISRDNAKNTVYLQMNSLKPEDTAVYYCAKGYDYYVRRYYYWGQGTQVTVSS | high polyreactivity
QVQLVESGGGLVQAGGSLRLSCAASGFIFHPYAMGWYRQAPGKERELVATITWSDDSTYYADSVKGRFTISRDNAKNTVYLQMNSLKPEDTAVYYCAARHKQHNRYDYWGQGTQVTVSS | low polyreactivity
QVQLVESGGGLVQAGGSLRLSCAASGSTFRTNTMGWYRQAPGKERELVADISWSGGSTYYADSVKGRFTISRDNAKNTVYLQMNSLKPEDTAVYYCAKDGAYWTYFSWYDYWGQGTQVTVSS | low polyreactivity
QVQLVESGVGLVQAGGSLRLSCAASGITFTGYAMGWYRQAPGKERELVAVISETGGSTYADSVKGRFTISRDNAKNTVYLQMNSLKPEDTAVYYCATRLWWPYSTAWAKMDYWGQGTQVTVSS | low polyreactivity
QVQLVESGGGLVQAGGSLRLSCAASGSTFDSYAMGRYRQAPGKERELVAAITNGGSTYYADSVKGRFTISRDNAKNTVYLQMHSLKPEDTAGYYCATDDYLLDNLYDYWGQGTQVTVSS | low polyreactivity
QVQLVESGGGLVQAGGSLRLSSAASGSIFYPYAMGWYRQAPGKARELVSTISWRGGSTYYADSVKGRFTISRDNAKNTDYVQMNRLKPEVTAVYYCAARKRPYSVINGMDYWGQGTQVTVSS | low polyreactivity
